Patent US8936806B2, “Periostin induces proliferation of cardiomyocytes and promotes cardiac regeneration” (Children's Medical Center Corporation, priority 2007, dated 2015)

How the values were obtained:
[1] = tested on: primary adult rat ventricular cardiomyocytes; experiment: Cytokinesis (aurora B kinase) in primary adult rat ventricular cardiomyocytes; format: cell-based
Text: (§1) Primary neonatal rat ventricular cardiomyocytes were isolated using the Neomyts kit (Cellutron, Highland Park, N.J.), seeded at a density of 10^5 cells/cm^2 onto gelatin-coated cover slips, stimulated for 3 days, and labeled with BrdU for the terminal 2 days. Primary adult ventricular cardiomyocytes were isolated from male (300 gm) Wistar rats (Charles River Laboratories) and maintained as described (Engel, F. B. et al. p38 MAP kinase inhibition enables proliferation of adult mammalian cardiomyocytes. Genes Dev 19, 1175-87 (2005)). Adult cardiomyocytes were stimulated daily for 9 days and labeled with 30 μM BrdU for the terminal 3 days. Cardiomyocytes were stimulated with periostin (500 ng/mL) and FGF (100 ng/mL). Inhibiting antibodies were added at a concentration of 10 μg/mL, cRGD at 10 μM, U0126 at 10 μM, PD98059 at 1 μM, LY294002 at 10 μM, and Wortmannin at 0.1 μM 30 min prior to stimulation. The vehicle used to dissolve factors or chemicals was added to unstimulated samples, which were then processed together with the test samples.
(§2) DNA-synthesis was analyzed by visualization of BrdU uptake and cytokinesis was determined by detection of the cleavage furrow and the midbody with an antibody against aurora B kinase as described (Engel, F. B. et al. p38 MAP kinase inhibition enables proliferation of adult mammalian cardiomyocytes. Genes Dev 19, 1175-87 (2005)). Signals were visualized with secondary antibodies conjugated to Alexa 488, Alexa 546, Alexa 594, and Alexa 647 (Invitrogen). Nuclei were visualized with 4′,6′-diamidino-2-phenylindole (DAPI, Invitrogen). For image acquisition, the value for γ was set at 1 and the lookup table settings were linear.

[2] = tested on: primary neonatal rat ventricular cardiomyocytes; experiment: DNA synthesis, mitosis and cytokinesis in primary neonatal rat ventricular cardiomyocytes; format: cell-based
Text: as §1, §2

[3] = tested on: primary neonatal rat ventricular cardiomyocytes; experiment: Cardiomyocyte proliferation by cell count (hemocytometer); format: cell-based
Description: To determine cardiomyocyte proliferation, primary neonatal rat ventricular cardiomyocytes were quantified by counting with a hemocytometer after 3 days and 6 days of stimulation. To determine cardiomyocyte survival, primary neonatal rat ventricular cardiomyocytes were pre-treated with 500 ng/mL periostin or buffer for 30 min and then exposed to 0.5 μM doxycycline or 100 ng/mL TNFα for 24 hr and quantified by counting. Corresponding samples were stained with an antibody directed against tropomyosin as a cardiomyocyte marker to control for the percentage of differentiated cardiomyocytes. Apoptotic cardiomyocyte nuclei were determined after 24 hr with the In situ Cell Death Detection Kit (Roche, Indianapolis, Ind.) in combination with staining for troponin I.

[4] = tested on: primary neonatal rat ventricular cardiomyocytes; experiment: Cell cycle markers (Ki-67, phosphorylated Rb, cyclin A) in neonatal cardiomyocytes; format: cell-based
Text: as §1, §2

ERK1/2 and Akt = settings: neonatal cardiomyocytes
Description: Primary cardiomyocytes or heart tissue were lysed in 20 mM Tris (pH 7.5), 150 mM NaCl, 10 mM EDTA, 1 mM EGTA, 1% Triton X-100, […], 1 mM β-glycerol phosphate, 1 mM Na3VO4, 1 μg/ml, leupeptin, 1% NP-40 and 0.24 mg/mL Pefabloc SC (Roche) at 4° C. Protein concentrations were determined using the BCA assay (Pierce, Rockford, Ill.). Forty μg of cell lysate was separated on 10% SDS-polyacrylamide gels, blotted onto nitrocellulose membranes (Amersham, Piscataway, N. J.), which were then incubated with antibodies according to manufacturer's directions, followed by visualization with ECL reagent (Amersham).

[5] = tested on: adult ventricular cardiomyocytes; experiment: Transcription of fetal gene program (RT-PCR) in adult ventricular cardiomyocytes; format: cell-based, rat
[6] = tested on: Adult male Sprague-Dawley rats; experiment: Cardiomyocyte cell cycle activity in vivo after intramyocardial injection; design: species or system rat; LVFW CM nuclei: unit not given here
Description: Experiments were performed in accordance with institutional guidelines of Massachusetts General Hospital. Injections and analyses were performed in a blinded fashion. Adult male Sprague-Dawley rats (300 gm, Charles River Laboratories) underwent thoracotomy and received intramyocardial injections of 50 μg of recombinant human periostin consisting of the fas1-4 domains, 50 μg of rat fibronectin, or 100 μL of 100 mM sodium acetate as a control (5 rats per group). The survival rate for this procedure was 80%. Injected periostin was confirmed by detection with a polyclonal antibody directed against human periostin (Abcam) and visualized by immunofluorescence microscopy. Intraperitoneal injections of BrdU (70 μmol/kg body weight) with a tissue half life of 2 hr were given every 48 hr, and rats were sacrificed after the third injection. Horizontal cryosections of 14 μm thickness spaced at 1 mm intervals were analyzed by laser scanning immunofluorescence microscopy. BrdU-positive cardiomyocyte nuclei and cytokineses were quantified on 16-20 sections per heart. Fibrosis and cardiomyocyte cross-sectional area were determined on 5 Masson's Trichrome-stained sections at the level of the injection at 40× magnification and quantified using the Metamorph software package (Molecular Devices Corp., Downingtown, Pa.).

[7] = Diffusion range and presence of recombinant periostin in myocardium after epicardial Gelfoam patch; format: in vivo, rat; settings: after 12 weeks
Description: To develop a long-term delivery system for recombinant periostin, we determined if recombinant periostin associated with Gelfoam, a biodegradable biological scaffold. Gelfoam patches (Pfizer, New York, N.Y.) of 1 cm^2 diameter were loaded with 100 μg of recombinant human periostin and incubated with 1 mL of PBS at 37° C. with continuous agitation for 10 weeks. The supernatant was replaced every 2 weeks and the concentration of recombinant periostin in the supernatant was determined by Western blot using a polyclonal antibody directed against human periostin (Abeam). The diffusion range of recombinant periostin in myocardium was determined with a polyclonal antibody directed against human periostin followed by immunofluorescence microscopy. Presence of periostin in the myocardium was determined by Western blot using a polyclonal antibody directed against human periostin (Abeam).
Adult male Sprague-Dawley rats (300 gm, Charles River Laboratories) underwent experimental myocardial infarction as described (del Monte, F. et al. Abrogation of ventricular arrhythmias in a model of ischemia and reperfusion by targeting myocardial calcium cycling. Proc Natl Acad Sci USA 101, 5622-7 (2004)). The survival rate was 67%. Gelfoam loaded with 100 μg of recombinant periostin or with buffer were applied over the myocardial infarction at the time of surgery. […]

[8] = 1 week after intracardiac injection

B1: periostin: Recombinant periostin, purified from HEK293 cells expressing the full-length human cDNA; secreted protein of 834 amino acids (Seq ID. No. 1) (protein, listed as Homo sapiens)
chain: MIPFLPMFSLLLLLIVNPINANNHYDKILAHSRIRGRDQGPNVCALQQILGTKKKYFSTCKNWYKKSICGQKTTVLYECCPGYMRMEGMKGCPAVLPIDHVYGTLGIVGATTTQRYSDASKLREEIEGKGSFTYFAPSNEAWDNLDSDIRRGLESNVNVELLNALHSHMINKRMLTKDLKNGMIIPSMYNNLGLFINHYPNGVVTVNCARIIHGNQIATNGVVHVIDRVLTQIGTSIQDFIEAEDDLSSFRAAAITSDILEALGRDGHFTLFAPTNEAFEKLPRGVLERFMGDKVASEALMKYHILNTLQCSESIMGGAVFETLEGNTIEIGCDGDSITVNGIKMVNKKDIVTNNGVIHLIDQVLIPDSAKQVIELAGKQQTTFTDLVAQLGLASALRPDGEYTLLAPVNNAFSDDTLSMVQRLLKLILQNHILKVKVGLNELYNGQILETIGGKQLRVFVYRTAVCIENSCMEKGSKQGRNGAIHIFREIIKPAEKSLHEKLKQDKRFSTFLSLLEAADLKELLTQPGDWTLFVPTNDAFKGMTSEEKEILIRDKNALQNIILYHLTPGVFIGKGFEPGVTNILKTTQGSKIFLKEVNDTLLVNELKSKESDIMTTNGVIHVVDKLLYPADTPVGNDQLLEILNKLIKYIQIKFVRGSTFKEIPVTVYTTKIITKVVEPKIKVIEGSLQPIIKTEGPTLTKVKIEGEPEFRLIKEGETITEVIHGEPIIKKYTKIIDGVPVEITEKETREERIITGPEIKYTRISTGGGETEETLKKLLQEEVTKVTKFIEGGDGHLFEDEEIKRLLQGDTPVRKLQANKKVQGSRRRLREGRSQ
In the case of B1, the “cytokinesis, of all differentiated cardiomyocytes” value ([1]; 9 days stimulation) is reported as 0.5±0.2%, the “BrdU-labeled nuclei in cardiomyocyte cytokineses” value ([1]; N=15) is reported as 100% and the “first detection of cytokinesis” value ([1]; time-course of stimulation) is reported as ≥ 6 days. The “DNA synthesis, of cardiomyocytes” value ([2]; 500 ng/mL, 3 days) was 35±5%, the “increase of DNA synthesis over non-stimulated cardiomyocytes” value ([2]; 500 ng/mL, 3 days) was 5 fold and the “increase of cardiomyocyte mitoses” value ([2]; 3 days) was 12 fold. The increase of cytokineses ([2]; 3 days) was 8 fold, the “induction of cardiomyocyte DNA synthesis” value ([2]; FIG. 2d, 2e) was “stimulated DNA synthesis as effectively as FGF” and the EC50 ([2]; increasing concentrations of periostin (FIG. 2a), read-out: half-maximal stimulation of cardiomyocyte DNA synthesis) was 155 ± 25 nM. The “increase of cardiomyocyte proliferation” value ([3]; after 3 days) was 3.6 fold, the “increase of cardiomyocyte proliferation” value ([3]; after 6 days) was 4.2 fold and the “increase of cardiomyocytes expressing cyclin A” value [4] was 11 fold. For the same molecule, the “increase of cardiomyocytes with phosphorylated Rb” value [4] was 12 fold, the “increase of proliferating cardiomyocytes (Ki-67)” value [4] was 4 fold and the “activation of ERK1/2 and Akt” value (ERK1/2 and Akt) was “activated”. For the same molecule, the “transcription of SERCA2” value [5] was “slightly increased”, the “transcription of β-MHC, SMA and ANF” value [5] was “not increased” and the “LVFW BrdU-positive CM nuclei” value [6, 8] was 0.051 ± 0.0021 %. The “LVFW CM nuclei” value [6, 8] was 10.3 ± 0.3 10^$$ per heart, the LVFW cytokineses [6, 8] was 0.008±0.002% and the “LVFW BrdU-positive CM nuclei” value ([6]; 1 week after intracardiac injection, 3 BrdU injections) was 5,322±363 per heart. The “LVFW BrdU-positive CM nuclei” value ([6]; 1 week after intracardiac injection, 3 BrdU injections, listed as PN) was 5411 ± 376 per heart, the LVFW myocardial volume ([6]; 1 week after intracardiac injection, 50 μg periostin (fas1-4 domains) or 50 μg rat fibronectin) was 211.3 ± 12.3 mm^3 and the LVFW cytokineses ([6]; 1 week after intracardiac injection, listed as Periostin) was 821±176 per heart. The “fibrosis after intramyocardial injection” value ([6]; FIG. 4a) was “did not induce”, the “hypertrophy (cardiomyocyte cross-sectional area) after intramyocardial injection” value ([6]; FIG. 4b) was “did not induce” and the H3P-positive binucleated cardiomyocytes ([6]; dispersed isolated cardiomyocytes, in vivo) was 0.04±0.01%. The “DNA synthesis, of cardiomyocyte nuclei in the injected area” value ([6]; rat, in vivo) was 0.7±0.1%, the “cytokinesis, of cardiomyocyte nuclei in the injected area” value ([6]; rat, in vivo) was 0.1±0.03% and the “increase of DNA synthesis compared with buffer-injected hearts” value ([6]; rat, in vivo) was 8 fold. The “increase of cytokinesis compared with buffer-injected hearts” value ([6]; rat, in vivo) was 11.5 fold, the “presence of periostin in the left ventricle by immunoblotting” value [7] was “confirmed presence” and the “distance from the epicardium to the farthest diffusion range of periostin” value ([7]; epicardial Gelfoam patch) was 461±62.
